{
  "source": "patent US20240261340A1",
  "about": "“Cutibacterium Acnes Biomimetic, Prebiotic, Probiotic and Postbiotic Compositions for Treatment of Skin Conditions” (Johnson & Johnson Consumer Inc., priority 2023, published 2024)",
  "molecules": {"B1": {"name": "Adiponectin (protein, UniProt Q15848 19-244, looked up)", "Adiponectin": "ETTTQGPGVLLPLPKGACTGWMAGIPGHPGHNGAPGRDGRDGTPGEKGEKGDPGLIGPKGDIGETGVPGAEGPRGFPGIQGRKGEPGEGAYVYRSAFSVGLETYVTIPNMPIRFTKIFYNQQNHYDGSTGKFHCNIPGLYYFAYHITVYMKDVKVSLFKKDKAMLFTYDQYQENNVDQASGSVLLHLEVGDQVWLQVYGEGERNGLYADNDNDSTFTGFLLYHDTN", "notes": "known in the literature to induce lipid production in cell cultures; positive control (Sigma)"}},
  "system": "Normal Human Epidermal Keratinocytes (NHEK)",
  "experiment": "Lipid accumulation fluorescence assay (AdipoRed) on NHEK total lipids",
  "format": "cell-based",
  "conditions": "10 μg/ml, positive control",
  "experimental": "Lipid accumulation using a fluorescence assay was then assessed. In particular, following the results of the transcriptomic analysis, NHEK were treated for 6 days with conditioned media at concentrations of 0.1, 0.5, 1, and 2%. Adiponectin 10 μg/ml (Sigma, St Quentin Fallavier, France), known in the literature to induce lipid production in cell cultures, was used as positive control. To quantify and visualize total lipids after the 6 days of treatment, cells were treated with AdipoRed™ Assay Reagent (Lonza, Verviers, Belgium) a lipophilic reagent which fluoresces (excitation: 485 nm, emission: 572 nm). The intensity of the fluorescence is proportional to the lipid concentration and can be measured using a spectrophotometer (Envision, Perlin Elmer, Villebon-sur-Yvette, France). Images were acquired using a fluorescence microscope (Axio imager, ZEISS, Rueil Malmaison France) with magnification ×20.\nAdiponectin induced an increase in fluorescence signal after 6 days of treatment (+25%) which validated the test. […] This experiment was repeated increasing the concentration of the conditioned media to 5% and 10% and reducing the time of treatment to 1 day. Non-conditioned media at 5% and 10% were also tested as negative controls and Adiponectin (10 μg/ml) as positive control.",
  "data": [
    {"molecule": "B1", "values": [
      {"measurement": "increase in fluorescence (total lipids)", "setting": "1 day of treatment", "result": 250, "unit": "%"},
      {"measurement": "increase in fluorescence signal (total lipids)", "setting": "6 days of treatment", "result": "+25%"}
    ]}
  ]
}
